Data set [1] concerns the molecule itself. Nature of the data set: AUC; sedimentation velocity, 4 to 10 µM protein, absorbance at 280 nm, 10 mM NaH2PO4, 400 mM NaCl, 5% glycerin, pH 7.5; c(S) method (SedFit).
Data set [2] concerns the molecule itself. The experiment in a line: cross-linking; disulfide formed on oxidation: purified, reduced protein treated with HOCl (25 µM), NH2Cl (25 µM) or H2O2 (1 mM), then non-reducing SDS-PAGE; disulfide-linked dimer at ca. 64 kDa, mostly reduced again by 1 mM TCEP.

Changes are numbered by the printed parent chain. Numbers in names are those of the source.

B1: HypT (wild-type, purified) (natural protein, E. coli, UniProt P39376 1-303, looked up)
chain: MDDCGAILHNIETKWLYDFLTLEKCRNFSQAAVSRNVSQPAFSRRIRALEQAIGVELFNRQVTPLQLSEQGKIFHSQIRHLLQQLESNLAELRGGSDYAQRKIKIAAAHSLSLGLLPSIISQMPPLFTWAIEAIDVDEAVDKLREGQSDCIFSFHDEDLLEAPFDHIRLFESQLFPVCASDEHGEALFNLAQPHFPLLNYSRNSYMGRLINRTLTRHSELSFSTFFVSSMSELLKQVALDGCGIAWLPEYAIQQEIRSGKLVVLNRDELVIPIQAYAYRMNTRMNPVAERFWRELRELEIVLS
notes: HypT (YjiE), HOCl-specific LysR-type transcription factor of E. coli; Oxidation (HOCl, NH2Cl, H2O2) gives a Cys4-Cys4 disulfide between two chains; also called YjiE; wild-type HypT; source: E. coli BL21 (DE3) gold, pET11a, purified (HisTrap, PD10 desalting); copies: 12
In general, stoichiometry N refers to a count of units in the complex or per binding partner. Take B1: the “stoichiometry N” value in data set [1] worked out at 12.

B2: HypT^C178S (natural protein, E. coli, UniProt P39376 1-303, looked up)
chain: B1 chain with C178S
notes: HypT (YjiE) of E. coli, single mutant C178S; source: E. coli BL21 (DE3) gold, pET11a, purified (HisTrap, PD10 desalting)
On to B2, for which the binding result in data set [2] is “binds”.

B3: HypT^quadrupleC150 (natural protein, E. coli, UniProt P39376 1-303, looked up)
chain: B1 chain with C4S, C25S, C178S, C242S
notes: HypT (YjiE) of E. coli, quadruple mutant: four cysteines replaced by serine, Cys150 left intact; source: E. coli BL21 (DE3) gold, pET28a, purified (HisTrap, PD10 desalting)
As to B3, in data set [1], the binding result was “binds”.

B4: HypT^C150S (natural protein, E. coli, UniProt P39376 1-303, looked up)
chain: B1 chain with C150S
notes: HypT (YjiE) of E. coli, single mutant C150S; source: E. coli BL21 (DE3) gold, pET11a, purified (HisTrap, PD10 desalting)
For B4, the binding result in data set [2] is recorded as “binds”.

B5: HypT^5C→S (natural protein, E. coli, UniProt P39376 1-303, looked up)
chain: B1 chain with C4S, C25S, C150S, C178S, C242S
notes: also called cysteine-free HypT mutant; source: E. coli BL21 (DE3) gold, pET28a, purified (HisTrap, PD10 desalting)
For B5, the “stoichiometry N” value in data set [1] came to 4.

B6: HypT^C25S (natural protein, E. coli, UniProt P39376 1-303, looked up)
chain: B1 chain with C25S
notes: HypT (YjiE) of E. coli, single mutant C25S; source: E. coli BL21 (DE3) gold, pET28a, purified (HisTrap, PD10 desalting)
For B6, the binding result in data set [2] is listed as “binds”.

B7: HypT^C242S (natural protein, E. coli, UniProt P39376 1-303, looked up)
chain: B1 chain with C242S
notes: HypT (YjiE) of E. coli, single mutant C242S; source: E. coli BL21 (DE3) gold, pET11a, purified (HisTrap, PD10 desalting)
For the protein B7, the binding result in data set [2] was “binds”.
